Target: T1, GST-Hof1-N-terminus (1–350 aa) (S. cerevisiae, UniProt Q05080 1-350)
T1 construct: Hof1, S. cerevisiae, N-terminal fragment with the F-BAR domain, residues 1-350, amplified from genomic DNA and cloned into pGEX-5X1; also called GST-Hof1^F-BAR; GST-Hof1^(N (1–350)); source: E. coli BL21-DE3, purified on glutathione Sepharose 4B and kept on the resin; not shown: GST, N-terminal, kept
T1 sequence (looked up): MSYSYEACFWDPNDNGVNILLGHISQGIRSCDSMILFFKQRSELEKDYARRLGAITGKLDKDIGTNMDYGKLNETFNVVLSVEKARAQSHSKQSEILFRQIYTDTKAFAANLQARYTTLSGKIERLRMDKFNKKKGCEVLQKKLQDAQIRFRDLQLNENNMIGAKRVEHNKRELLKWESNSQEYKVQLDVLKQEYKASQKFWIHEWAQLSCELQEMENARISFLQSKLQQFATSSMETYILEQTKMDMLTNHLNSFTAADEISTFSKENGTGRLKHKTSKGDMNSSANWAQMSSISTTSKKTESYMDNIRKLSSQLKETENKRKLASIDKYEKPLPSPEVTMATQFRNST
Test: pull-down; GST-Hof1 (1-350) (~3 µg) on glutathione beads mixed with ~1 µg 6His-bdSUMO-Gin4-KA1; PBS, 0.2% NP-40, 1 hr at 4°C; washed with PBS, 1% NP-40; western blot with anti-His and anti-GST
Details: both partners purified

B1: 6His-bdSUMO-Gin4-KA1 (1003–1142 aa) (domain or fragment, S. cerevisiae, UniProt Q12263 1003-1142, looked up)
chain: GSQAKDHSKDHLKEHKQDKNTAIGNGSFFRKFSKSSDKTMELYAKISAKQLFNGLEKLLRGWTQYGLKNIKSHPNNLTLTGKLSSDNIFSLRSTLFEVNIYPRGKMSVVQFKKVSGSFKAVKKLVNEVENVLNKEGVLQK
notes: also called 6xHis-bdSUMO-Gin4^KA1; source: E. coli BL21-DE3, purified (Ni-NTA, buffer exchange); not shown: His6, N-terminal, kept; bdSUMO, N-terminal, kept
B1: binds.

— article PMC13557712, “Nim1-related kinases regulate septin organization and cytokinesis by modulating Hof1 at the cell division site” (eLife, 2026)
